Measurements taken from article PMC11323482, “Role of the antiparallel double-stranded filament form of FtsA in activating the Escherichia coli divisome” (mBio, 2024).
Substitutions are numbered along the chain they refer to. In names and notes the source's numbering stands.

B1: FtsA^M71A with Q155C (natural protein, E. coli, UniProt P0ABH0 1-420, looked up)
chain: MIKATDRKLVVGLEIGTAKVAALVGEVLPDGMVNIIGVGSCPSRGMDKGGVNDLESVVKCVQRAIDQAELAADCQISSVYLALSGKHISCQNEIGMVPISEEEVTQEDVENVVHTAKSVRVRDEHRVLHVIPQEYAIDYQEGIKNPVGLSGVRMCAKVHLITCHNDMAKNIVKAVERCGLKVDQLIFAGLASSYSVLTEDERELGVCVVDIGGGTMDIAVYTGGALRHTKVIPYAGNVVTSDIAYAFGTPPSDAEAIKVRHGCALGSIVGKDESVEVPSVGGRPPRSLQRQTLAEVIEPRYTELLNLVNEEILQLQEKLRQQGVKHHLAAGIVLTGGAAQIEGLAACAQRVFHTQVRIGAPLNITGLTDYAQEPYYSTAVGLLHYGKESHLNGEAEVEKRVTASVGSWIKRLNSWLRKEF
notes: FtsA, E. coli, M71A, measured by crosslinking at Q155C; M71A introduced into pWM7049 or pWM7239; source: E. coli, expressed from plasmid, in living cells
B2: FLAG-FtsA^Q155C (natural protein, E. coli, UniProt P0ABH0 1-420, looked up)
chain: B1 chain with A71M
notes: FtsA, E. coli, with the cysteine substitution Q155C; made by site-directed mutagenesis on pWM2785 (pDSW210-FLAG-FtsA); Native FtsA is also present in some strains; also called pDSW210-FLAG-FtsA^Q155C; source: E. coli, expressed from plasmid pDSW210 (IPTG), in living cells; not shown: FLAG, N-terminal, kept

Columns and labels:
[1] = target: the molecule itself; test: cross-linking; in vivo site-specific cysteine crosslinking in E. coli cells with BMB or BMH (0.5 mM, 10 min, cold PBS), quenched with beta-mercaptoethanol; SDS-PAGE and immunoblot with anti-FtsA; dividing cells: ftsZ84(ts) strains 10 and 20 min after return to 30 °C, ftsQ1ts and zipA1ts at 30 °C, ftsA° strain at 30 or 42 °C, WM4952 at 37 °C, WM4953
[2] = target: the molecule itself; test: cross-linking; in vivo cysteine crosslinking in ftsQ1(ts) cells (WM7148) shifted to the nonpermissive 42 °C, compared with 30 °C; SDS-PAGE and anti-FtsA immunoblot
[3] = target: the molecule itself; test: cross-linking; in vivo cysteine crosslinking in zipA1(ts) cells (WM7149) shifted to the nonpermissive 42 °C, compared with 30 °C; SDS-PAGE and anti-FtsA immunoblot

Protein | DS filament crosslinking at Q155C, percent of WT levels [1] | fold decrease of the crosslinked band's intensity at 42 °C against 30 °C [2] | fold decrease of the crosslinked band's intensity at 42 °C against 30 °C [3]
B1 | ~35% | – | –
B2 | – | 3 fold | 7.5 fold
